Assay results from patent US6867012B2, “Determination method of biological component and reagent kit used therefor” (Toyo Boseki Kabushiki Kaisha, priority 2000, dated 2005).

Assay: Activity measurement of betaine-homocysteine methyltransferase (methionine produced, absorbance at 520 nm)
Assay type: biochemical
Conditions: 37° C., 1 h, pH 7.5; 1 U = 1 μmole of methionine per 1 h
Protocol: • reagent A 50 mM potassium phosphate buffer (pH 7.5) • reagent B 100 mM DL-homocysteine solution (dissolved in reagent A) • reagent C 100 mM betaine (dissolved in reagent A) • reagent D 0.2% aqueous pentacyanoanmineiron(III) sodium solution • reagent E acetic acid • reagent F 10% aqueous sodium nitrite solution <Measurement Conditions>
After the completion of the reaction, reagent D (5 ml) is added and the mixture is stirred. After standing for 1 min, 1 ml each of reagent E and reagent F were added in this order and the mixture is stirred. After standing for 30 min at room temperature, absorbance at 520 nm is measured. Using L-methionine dissolved in reagent A instead of the enzyme solution, absorbance is measured in the same manner and a standard curve is drawn, from which the amount of methionine produced by the enzymatic reaction is measured.

B1: betaine-homocysteine methyltransferase: Human-derived enzyme (EC 2.1.1.5) expressed from human liver cDNA in E. coli BL21(DE3) and purified (protein, UniProt Q93088 1-406, looked up)
Betaine--homocysteine …: MPPVGGKKAKKGILERLNAGEIVIGDGGFVFALEKRGYVKAGPWTPEAAVEHPEAVRQLHREFLRAGSNVMQTFTFYASEDKLENRGNYVLEKISGQEVNEAACDIARQVADEGDALVAGGVSQTPSYLSCKSETEVKKVFLQQLEVFMKKNVDFLIAEYFEHVEEAVWAVETLIASGKPVAATMCIGPEGDLHGVPPGECAVRLVKAGASIIGVNCHFDPTISLKTVKLMKEGLEAARLKAHLMSQPLAYHTPDCNKQGFIDLPEFPFGLEPRVATRWDIQKYAREAYNLGVRYIGGCCGFEPYHIRAIAEELAPERGFLPPASEKHGSWGSGLDMHTKPWVRARARKEYWENLRIASGRPYNPSMSKPDGWGVTKGTAELMQQKEATTEQQLKELFEKQKFKSQ
  specific activity of purified enzyme standard product: about 2.1 U/mg protein
